# Results taken from US20180148504A1.
# How the values were obtained:
# [1] = target: recombinant purified FRα (ECL assay calibrator) (human) (UniProt P15328); assay: ECL sandwich capture 19D4.B7 / detection 26A9.C4; calibrator incubated overnight with 10 µg/mL MORAb-003
# [2] = target: endogenous folate receptor alpha in human serum and plasma samples (human) (UniProt P15328); assay: ECL sandwich capture 19D4.B7 / detection 26A9.C4; serum incubated overnight with 10 µg/mL MORAb-003
# [3] = target: endogenous folate receptor alpha in human serum and plasma samples (human) (UniProt P15328); assay: ECL sandwich competition; competitors 24H8.D3 capture / 19D4.B7 detection; plasma of sample #DLSO-015; MORAb-003 100 µg/mL
# [4] = target: endogenous folate receptor alpha in human serum and plasma samples (human) (UniProt P15328); assay: ECL sandwich capture 19D4.B7 / detection 1A8.G11.E7; serum incubated overnight with 10 µg/mL MORAb-003
# [5] = target: recombinant purified FRα (ECL assay calibrator) (human) (UniProt P15328); assay: ECL sandwich capture 1D2.G8.G10 / detection 30G6.G6.G4.E9; calibrator incubated overnight with 10 µg/mL MORAb-003
# [6] = target: recombinant purified FRα (ECL assay calibrator) (human) (UniProt P15328); assay: ECL sandwich competition; competitors 9F3 capture / 24F12 detection; FRα standard STD01; MORAb-003 10 µg/mL
# [7] = target: endogenous folate receptor alpha in human serum and plasma samples (human) (UniProt P15328); assay: ECL sandwich capture 24H8.D3 / detection 19D4.B7; serum incubated overnight with 10 µg/mL MORAb-003
# [8] = target: recombinant purified FRα (ECL assay calibrator) (human) (UniProt P15328); assay: ECL sandwich capture 1D2.G8.G10 / detection 19D4.B7; calibrator incubated overnight with 10 µg/mL MORAb-003
# [9] = target: recombinant purified FRα (ECL assay calibrator) (human) (UniProt P15328); assay: ECL sandwich capture 24H8.D3 / detection 19D4.B7; calibrator incubated overnight with 10 µg/mL MORAb-003
# [10] = target: recombinant purified FRα (ECL assay calibrator) (human) (UniProt P15328); assay: ECL sandwich competition; competitors 9F3 capture / 24F12 detection; FRα standard STD07; MORAb-003 50 µg/mL
# [11] = target: endogenous folate receptor alpha in human serum and plasma samples (human) (UniProt P15328); assay: ECL sandwich, positive control +CONT: capture 26B3.F2 (f1) / detection 19D4.B7; serum incubated overnight with 10 µg/mL MORAb-003
# [12] = target: recombinant purified FRα (ECL assay calibrator) (human) (UniProt P15328); assay: ECL sandwich competition; competitors 9F3 capture / 24F12 detection; FRα standard STD05; MORAb-003 50 µg/mL
# [13] = target: recombinant purified FRα (ECL assay calibrator) (human) (UniProt P15328); assay: ECL sandwich capture 30G6.G6.G4.E9 / detection 28H12.G9; calibrator incubated overnight with 10 µg/mL MORAb-003
# [14] = target: recombinant purified FRα (ECL assay calibrator) (human) (UniProt P15328); assay: ECL sandwich capture 30G6.G6.G4.E9 / detection 24H8.D3; calibrator incubated overnight with 10 µg/mL MORAb-003
# [15] = target: recombinant purified FRα (ECL assay calibrator) (human) (UniProt P15328); assay: ECL sandwich capture 19D4.B7 / detection 5C12.H8; calibrator incubated overnight with 10 µg/mL MORAb-003
# [16] = target: recombinant purified FRα (ECL assay calibrator) (human) (UniProt P15328); assay: ECL sandwich capture 6A2.G7 / detection 24H8.F3; calibrator incubated overnight with 10 µg/mL MORAb-003
# [17] = target: recombinant purified FRα (ECL assay calibrator) (human) (UniProt P15328); assay: ECL sandwich capture 19D4.B7 / detection 24H8.D3; calibrator incubated overnight with 10 µg/mL MORAb-003
# [18] = target: recombinant purified FRα (ECL assay calibrator) (human) (UniProt P15328); assay: ECL sandwich competition; competitors 9F3 capture / 24F12 detection; FRα standard STD05; MORAb-003 10 µg/mL
# [19] = target: endogenous folate receptor alpha in human serum and plasma samples (human) (UniProt P15328); assay: ECL sandwich capture 1A8.G11.E7 / detection 24H8.F3; serum incubated overnight with 10 µg/mL MORAb-003
# [20] = target: endogenous folate receptor alpha in human serum and plasma samples (human) (UniProt P15328); assay: ECL sandwich capture 1D2.G8.G10 / detection 19D4.B7; serum incubated overnight with 10 µg/mL MORAb-003
# [21] = target: recombinant purified FRα (ECL assay calibrator) (human) (UniProt P15328); assay: ECL sandwich capture 1A8.G11.E7 / detection 30G6.G6.G4.E9; calibrator incubated overnight with 10 µg/mL MORAb-003
# [22] = target: recombinant purified FRα (ECL assay calibrator) (human) (UniProt P15328); assay: ECL sandwich capture 24H8.F3 / detection 30G6.G6.G4.E9; calibrator incubated overnight with 10 µg/mL MORAb-003
# [23] = target: endogenous folate receptor alpha in human serum and plasma samples (human) (UniProt P15328); assay: ECL sandwich competition; competitors 24H8.D3 capture / 19D4.B7 detection; plasma samples; MORAb-003 100 µg/mL
# [24] = target: recombinant purified FRα (ECL assay calibrator) (human) (UniProt P15328); assay: ECL sandwich capture 26A9.C4 / detection 19D4.B7; calibrator incubated overnight with 10 µg/mL MORAb-003
# Sequence of recombinant purified FRα (ECL assay calibrator) (human) (P15328 25-234 limits assumed): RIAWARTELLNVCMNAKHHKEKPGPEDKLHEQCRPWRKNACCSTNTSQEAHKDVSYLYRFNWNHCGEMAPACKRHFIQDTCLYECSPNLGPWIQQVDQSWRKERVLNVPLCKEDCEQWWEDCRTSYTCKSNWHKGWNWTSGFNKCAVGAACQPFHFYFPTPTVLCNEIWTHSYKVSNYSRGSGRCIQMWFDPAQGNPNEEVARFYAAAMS
# Sequence of endogenous folate receptor alpha in human serum and plasma samples (human) (P15328 25-234 limits assumed, form in doubt): as the sequence (P15328 25-234 limits assumed) above
binder,measurement,setting,value
"farletuzumab (MORAb-003) (antibody, part only; not given: Constant regions, V domains shown, not shown: another chain or arm of the molecule) VH: EVQLVESGGGVVQPGRSLRLSCSASGFTFSGYGLSWVRQAPGKGLEWVAMISSGGSYTYYADSVKGRFAISRDNAKNTLFLQMDSLRPEDTGVYFCARHGDDPAWFAYWGQGTPVTVSS VL: DIQLTQSPSSLSASVGDRVTITCSVSSSISSNNLHWYQQKPGKAPKPWIYGTSNLASGVPSRFSGSGSGTDYTFTISSLQPEDIATYYCQQWSSYPYMYTFGQGTKVEIK",Drug Suppression of Cal Signal at 500 pg/mL,[1],-14%
same,Drug suppression of serum,[2],-3.77%
same,"percent inhibition (sample #DLSO-015, plasma)",[3],10%
same,Drug suppression of serum,[4],-4.92%
same,Drug Suppression of Cal Signal at 500 pg/mL,[5],-11%
same,% of signal without MORAb-003 (MORAb-003 interference),[6],68%
same,Drug suppression of serum,[7],-2.8%
same,Drug Suppression of Cal Signal at 500 pg/mL,[8],-12%
same,Drug Suppression of Cal Signal at 500 pg/mL,[9],-3%
same,% of signal without MORAb-003 (MORAb-003 interference),[10],88%
same,Drug suppression of serum,[11],12.1%
same,% of signal without MORAb-003 (MORAb-003 interference),[12],75%
same,Drug Suppression of Cal Signal at 500 pg/mL,[13],-15%
same,Drug Suppression of Cal Signal at 500 pg/mL,[14],-2%
same,Drug Suppression of Cal Signal at 500 pg/mL,[15],-10%
same,Drug Suppression of Cal Signal at 500 pg/mL,[16],-5%
same,Drug Suppression of Cal Signal at 500 pg/mL,[17],-6%
same,% of signal without MORAb-003 (MORAb-003 interference),[18],71%
same,Drug suppression of serum,[19],-61.3%
same,Drug suppression of serum,[20],84.6%
same,Drug Suppression of Cal Signal at 500 pg/mL,[21],-6%
same,Drug Suppression of Cal Signal at 500 pg/mL,[22],-6%
same,"percent inhibition (median, plasma)",[23],4%
same,Drug Suppression of Cal Signal at 500 pg/mL,[24],72%
